For experiment [1], the system named is D54. Description: Tumor cell proliferation, D54. The format is cell-based, human. The note with it: D54, 72 hours. The method, then:
(§1) Cell Proliferation Assay. The effect of rK5 and rK5 peptides on endothelial cells were assessed using a proliferation assay with 1% BSA and 3 ng/ml bFGF in serum-free media. Relative cell numbers in each well of a 96 well microplate after incubation for 72 hours in the absence or presence of inhibitors were determined by using the AQueous cell proliferation assay (Promega, San Luis Obispo, Calif.). For all other cell lines tested for proliferation, minimal growth media was used (Cao, Y., Ji, R., Davidson, D., Schaller, J., Marti, D., Sohndel, S., McCance, S., O'Reilly, M., Llinas, M., and Folkman, J. Kringle domains of human angiostatin. Characterization of the anti-proliferative activity on endothelial cells. (1996) J. Biol. Chem. 271, 29461-29467). Results are presented as the percent inhibition of control cell (bFGF-induced) proliferation.

The subject of experiment [2] is neutrophils. Description: Neutrophil migration. The format is cell-based. The note with it: concentrations up to 1000-fold higher than for endothelial cell migration; data not shown.
Experiment [3] has as its system A549. Description: Tumor cell proliferation, A549. The format is cell-based. Conditions: A549, 72 hours. The method, then: as §1
The subject of experiment [4] is tumor or primary cell proliferation. Description: Tumor or primary cell proliferation. The note with it: at concentrations as high as 100 μM. The format is cell-based. The method, then: as §1
Experiment [5] addresses HMVEC (Homo sapiens, UniProt P11021). Description: VEGF-stimulated HMVEC migration (Boyden chamber). The note with it: read-out: inhibition of endothelial cell migration. The format is cell-based. On the procedure: Endothelial cell migration assays: The effect of rK5 on endothelial cell migration was determined by two different methods. The first assay was performed in a 96 well plate with a cellulose membrane between the upper and lower chambers. HMVEC were starved of growth factors overnight, labeled with fluorescent calcein AM (50-100 nM), plated into a 96 well migration chamber (2.9×10^4/well) (Neuroprobe, Gaitherburg, Md.), and stimulated to migrate with VEGF (5 ng/mL). After 4 h, migrated cells were measured by fluorescence (Frevert C W, Wong V A, Goodman R B, Goodwin R, Martin T R. Rapid fluorescence-based measurement of neutrophil migration in vitro. J Immunol Methods. 1998 Apr. 1;213(1):41-52). In a second assay for cellular migration, a standard Boyden chamber was used (Polyerini, P. J., Bouck, N. P. & Rastinejad, F. Assay and purification of naturally occurring inhibitor of angiogenesis. Meth. Enzymol. 198, 440-450 (1991)). HMVEC cells were starved overnight in DME containing 0.1% bovine serum albumin (BSA) and harvested by scraping and resuspended in DME with 0.1% BSA at 1.5×10^6 cells per ml. Cells were added to the bottom of a 48-well, Boyden chamber. The chamber was assembled and inverted, and cells were allowed to attach for 2 hours at 37° C. to polycarbonate chemotaxis membranes (5 μm pore size) that had been soaked in 0.1% gelatin overnight and dried. The chamber was re-inverted, test substances, including activators were added to the wells of the upper chamber and the apparatus was incubated for 4 hours at 37° C. Growth factors were used, where indicated, at concentrations determined in preliminary experiments to give equivalent migration responses of about 100 cells migrated/high powered field (400×). […] Membranes were recovered, fixed and stained and the number of cells that had migrated to the upper chamber per 10 high power fields counted. Background migration to DME+0.1% BSA was subtracted and the data reported as the number of cells migrated per 10 high power fields (400×) or, when results from multiple experiments were combined, as the percent inhibition of migration compared to the positive growth factor control (Polyerini, P. J., Bouck, N. P. & Rastinejad, F. Assay and purification of naturally occurring inhibitor of angiogenesis. Meth. Enzymol. 198, 440-450 (1991)).

Experiment [6] deals with B16F10. Description: Tumor cell proliferation, B16F10. Conditions: B16F10, 72 hours. The format is cell-based. On the procedure: as §1
Experiment [7] has as its system HT1080. Description: Tumor cell proliferation, HT1080. The format is cell-based, human. Conditions: HT1080, 72 hours. On the procedure:
as §1

For experiment [8], the system named is P388. Description: Tumor cell proliferation, P388. The format is cell-based. The note with it: P388, 72 hours. On the procedure:
as §1

The test system of experiment [9] is Lewis Lung Carcinoma. Description: Tumor cell proliferation, Lewis Lung Carcinoma. The format is cell-based. Conditions: 72 hours. The method, then:
as §1

Experiment [10] relates to PC3. Description: Tumor cell proliferation, PC3. The format is cell-based. The note with it: PC3, 72 hours. The method, then:
as §1

Experiment [11] relates to LNCaP. Description: Tumor cell proliferation, LNCaP. The format is cell-based. The note with it: 72 hours. On the procedure: as §1
In experiment [12] the test system is HT1080 human fibrosarcoma cells. Description: Apoptosis of HT1080 cells under hypoxia. The format is cell-based. On the procedure:
FIG. 15A is a graph showing the effect of rK5 on HT1080 human fibrosarcoma cells under hypoxic and non-hypoxic conditions. […] cells were plated on slides overnight with complete medium. Control slides were put in the incubator at 5% CO2 and 37° C. The other slide of cells was put in a hypoxic chamber with 95% N2, 5% CO2 at 37° C. for 24 hours. GRP78 on the cell surface was detected by IHC analysis with a polyclonal antibody to GRP78 conjugated to horseradish peroxidase. The GRP78 was visualized with the DAB reagent displaying a brown color.
FIG. 15B is a graph showing the effect of rK5 on induction of apoptosis in various tumor cell lines tested under hypoxic conditions. Cells were plated in 96-well plates overnight. Half the plates were put in hypoxic chambers overnight at 37° C. with and without 500 nM rK5. Increased apoptosis was shown by an ELISA technique that measures the number of nucleosome fragments. The apoptotic index was calculated from the apoptosis rate of control cells (without K5 and with or without hypoxia). The samples were run in quadruplicate.
FIG. 15C is a graph showing the effect of rK5 on hypoxia-stressed HT1090 cells transfected with an siRNA and a scrambled siRNA to GRP78. The transfected cells were plated in 96 well plates and placed at 5% CO2 and 37° C. rK5 (500 nM) was added to the cells and half were incubated in an hypoxic chamber with 95% N2, 5% CO2 at 37° C. and half were incubated at 5% CO2 and 37° C. for 24 hours. Apoptosis was shown by an ELISA technique mentioned above. The samples were run in quadruplicate.

A value given as a limit tells only on which side of the number the result lay.

HMVEC, sequence (P11021 19-654): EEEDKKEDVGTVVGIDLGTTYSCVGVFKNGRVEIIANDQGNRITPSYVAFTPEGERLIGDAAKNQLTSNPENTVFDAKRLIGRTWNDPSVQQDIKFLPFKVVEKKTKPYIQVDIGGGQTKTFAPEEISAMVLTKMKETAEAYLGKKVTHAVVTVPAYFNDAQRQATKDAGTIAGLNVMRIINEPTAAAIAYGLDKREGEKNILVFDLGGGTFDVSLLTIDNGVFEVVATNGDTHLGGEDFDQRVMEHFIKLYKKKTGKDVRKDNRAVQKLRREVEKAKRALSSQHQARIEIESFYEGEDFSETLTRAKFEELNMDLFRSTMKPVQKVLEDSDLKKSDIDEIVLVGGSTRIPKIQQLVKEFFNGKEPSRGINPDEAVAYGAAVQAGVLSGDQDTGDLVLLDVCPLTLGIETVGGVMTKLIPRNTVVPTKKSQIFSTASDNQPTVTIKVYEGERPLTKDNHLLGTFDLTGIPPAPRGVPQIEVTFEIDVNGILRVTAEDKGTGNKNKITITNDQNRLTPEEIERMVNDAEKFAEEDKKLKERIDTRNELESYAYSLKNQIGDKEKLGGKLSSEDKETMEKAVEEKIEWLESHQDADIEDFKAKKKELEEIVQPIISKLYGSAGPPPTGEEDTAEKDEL

B1: rK5: recombinant kringle 5 fragment of human plasminogen (residues 450-543), expressed in E. coli or yeast (protein)
chain: LLPDVETPSEEDCMFGNGKGYRGKRATTVTGTPCQDWAAQEPHRHSIFTPETNPRAGLEKNYCRNPDGDVGGPWCYTTNPRKLYDYCDVPQCAA
In the case of B1, the “IC50 values for cell proliferation” value in experiment [1], in experiment [3], in experiment [6], in experiment [7], in experiment [8] and in [9] was over 100 µg/mL in each case. For the same molecule, the “IC50 values for cell proliferation” value in [10] and in [11] was over 100 µg/mL in each case. In [2], the “inhibition of migration of neutrophils” value was “failed to inhibit”. The “inhibition of tumor or primary cell proliferation” value in experiment [4] was “did not cause inhibition”. Moreover, the IC50 in experiment [5] was 0.25 nM. The “activity on hypoxia-stressed GRP78 siRNA transfected HT1080 cells” value in experiment [12] (hypoxia, GRP78 siRNA transfected, rK5 500 nM) is recorded as “significantly eliminated the activity of rK5”. Moreover, the “increase in apoptosis under hypoxic conditions” value in experiment [12] (hypoxic conditions, within 24 hours) is given as “greater than two-fold increase in apoptosis”. For the same molecule, the “effect on cellular apoptosis without hypoxia” value in [12] (without hypoxia) is “no significant effect”.

The values above are taken from patent US20050053993A1, “Uses of an endothelial cell receptor” (priority 2002, published 2005).
